Measured values as given in the supplement of paper PMC10567573.

B1: BTBD1 (parent)
chain: TSAEIELPDVEPAAFLALLRFLYS

Variants of: B1
Experiment: protein stability index of a GFP-peptide fusion (GPS, HEK-293T) (PSI 1-6); higher = more stable
Conditions: c terminus: a fixed tail appended
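Also: lentivirally expressed fusions sorted by FACS into six bins by GFP to DsRed ratio, PSI derived from sequencing read proportions per bin multiplied by bin number.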

Going from TSAEIELRDVEPAAFLALLRFLYS to TSAEIELVDVEPAAFLALLRFLYS, the protein stability index rises from 1.93 to 2.48.

Compared with TSAEIELNDVEPAAFLALLRFLYS, TSAEIELKDVEPAAFLALLRFLYS is lower in protein stability index: 1.92 for the first, 1.46 for the second.

Compared with TSAEIELYDVEPAAFLALLRFLYS, TSAEIELPYVEPAAFLALLRFLYS is lower in protein stability index: 2.37 for the first, 1.33 for the second.

Compared with TSAEIELPLVEPAAFLALLRFLYS, TSAEIELPIVEPAAFLALLRFLYS is lower in protein stability index: 1.63 for the first, 1.49 for the second.

First: TSAEIELPRVEPAAFLALLRFLYS
Second: TSAEIELPCVEPAAFLALLRFLYS
The protein stability index of the first is higher: 2.24 for the first, 1.62 for the second.

Going from TSAEIELPVVEPAAFLALLRFLYS to TSAEIELPHVEPAAFLALLRFLYS, the protein stability index rises from 1.95 to 2.

Going from TSAEIELPMVEPAAFLALLRFLYS to TSAEIELPNVEPAAFLALLRFLYS, the protein stability index falls from 2.11 to 2.

First: TSAEIELPFVEPAAFLALLRFLYS
Second: TSAEIELPQVEPAAFLALLRFLYS
The protein stability index of the first is lower: 2.23 for the first, 2.45 for the second.

First: TSAEIELPEVEPAAFLALLRFLYS
Second: TSAEIELPWVEPAAFLALLRFLYS
The protein stability index of the first is higher: 2.19 for the first, 2.12 for the second.

Compared with TSAEIELPGVEPAAFLALLRFLYS, TSAEIELPPVEPAAFLALLRFLYS is higher in protein stability index: 1.92 for the first, 2.4 for the second.

Compared with TSAEIELPAVEPAAFLALLRFLYS, TSAEIELPKVEPAAFLALLRFLYS is higher in protein stability index: 1.84 for the first, 1.98 for the second.

Compared with TSAEIELPTVEPAAFLALLRFLYS, TSAEIELPSVEPAAFLALLRFLYS is lower in protein stability index: 2.55 for the first, 2.12 for the second.

First: TSAEIELPDCEPAAFLALLRFLYS
Second: TSAEIELPDLEPAAFLALLRFLYS
The protein stability index of the first is higher: 1.67 for the first, 1.56 for the second.

Going from TSAEIELPDNEPAAFLALLRFLYS to TSAEIELPDMEPAAFLALLRFLYS, the protein stability index falls from 2.08 to 1.95.

Compared with TSAEIELPDAEPAAFLALLRFLYS, TSAEIELPDYEPAAFLALLRFLYS is lower in protein stability index: 1.8 for the first, 1.78 for the second.

First: TSAEIELPDWEPAAFLALLRFLYS
Second: TSAEIELPDHEPAAFLALLRFLYS
The protein stability index of the first is lower: 1.62 for the first, 1.65 for the second.

Compared with TSAEIELPDPEPAAFLALLRFLYS, TSAEIELPDQEPAAFLALLRFLYS is lower in protein stability index: 2.32 for the first, 2.22 for the second.

First: TSAEIELPDIEPAAFLALLRFLYS
Second: TSAEIELPDGEPAAFLALLRFLYS
The protein stability index of the first is lower: 1.8 for the first, 2.23 for the second.

First: TSAEIELPDDEPAAFLALLRFLYS
Second: TSAEIELPDSEPAAFLALLRFLYS
The protein stability index of the first is lower: 2.2 for the first, 2.78 for the second.

Compared with TSAEIELPDREPAAFLALLRFLYS, TSAEIELPDEEPAAFLALLRFLYS is higher in protein stability index: 2.09 for the first, 2.35 for the second.

Compared with TSAEIELPDTEPAAFLALLRFLYS, TSAEIELPDFEPAAFLALLRFLYS is lower in protein stability index: 2.01 for the first, 1.82 for the second.

Going from TSAEIELPDKEPAAFLALLRFLYS to TSAEIELPDVEYAAFLALLRFLYS, the protein stability index rises from 1.69 to 2.22.

Compared with TSAEIELPDVEAAAFLALLRFLYS, TSAEIELPDVEEAAFLALLRFLYS is higher in protein stability index: 1.29 for the first, 2.08 for the second.

First: TSAEIELPDVEDAAFLALLRFLYS
Second: TSAEIELPDVELAAFLALLRFLYS
The protein stability index of the first is lower: 1.47 for the first, 1.67 for the second.

Going from TSAEIELPDVEQAAFLALLRFLYS to TSAEIELPDVEIAAFLALLRFLYS, the protein stability index rises from 1.19 to 2.24.

First: TSAEIELPDVEWAAFLALLRFLYS
Second: TSAEIELPDVEFAAFLALLRFLYS
The protein stability index of the first is lower: 1.8 for the first, 1.84 for the second.

First: TSAEIELPDVEKAAFLALLRFLYS
Second: TSAEIELPDVESAAFLALLRFLYS
The protein stability index of the first is lower: 1.61 for the first, 2.46 for the second.

Compared with TSAEIELPDVEHAAFLALLRFLYS, TSAEIELPDVERAAFLALLRFLYS is lower in protein stability index: 2.15 for the first, 1.93 for the second.

Going from TSAEIELPDVEMAAFLALLRFLYS to TSAEIELPDVEVAAFLALLRFLYS, the protein stability index rises from 1.46 to 2.46.

Compared with TSAEIELPDVECAAFLALLRFLYS, TSAEIELPDVETAAFLALLRFLYS is lower in protein stability index: 2.3 for the first, 1.41 for the second.

Compared with TSAEIELPDVENAAFLALLRFLYS, TSAEIELPDVEGAAFLALLRFLYS is lower in protein stability index: 1.95 for the first, 1.85 for the second.

Compared with TSAELELPDVEPAAFLALLRFLYS, TSAEWELPDVEPAAFLALLRFLYS is higher in protein stability index: 1.75 for the first, 2 for the second.

First: TSAEVELPDVEPAAFLALLRFLYS
Second: TSAECELPDVEPAAFLALLRFLYS
The protein stability index of the first is lower: 1.75 for the first, 1.77 for the second.

Compared with TSAEKELPDVEPAAFLALLRFLYS, TSAEAELPDVEPAAFLALLRFLYS is lower in protein stability index: 2.94 for the first, 2.06 for the second.

Going from TSAENELPDVEPAAFLALLRFLYS to TSAEHELPDVEPAAFLALLRFLYS, the protein stability index falls from 2.14 to 1.93.

Going from TSAEQELPDVEPAAFLALLRFLYS to TSAEFELPDVEPAAFLALLRFLYS, the protein stability index falls from 2.4 to 1.78.

Compared with TSAEMELPDVEPAAFLALLRFLYS, TSAEDELPDVEPAAFLALLRFLYS is higher in protein stability index: 1.89 for the first, 2.44 for the second.

First: TSAERELPDVEPAAFLALLRFLYS
Second: TSAESELPDVEPAAFLALLRFLYS
The protein stability index of the first is higher: 2.55 for the first, 1.94 for the second.

Compared with TSAETELPDVEPAAFLALLRFLYS, TSAEPELPDVEPAAFLALLRFLYS is lower in protein stability index: 2.18 for the first, 1.68 for the second.

First: TSAEGELPDVEPAAFLALLRFLYS
Second: TSAEYELPDVEPAAFLALLRFLYS
The protein stability index of the first is higher: 2.55 for the first, 1.95 for the second.

Going from TSAEEELPDVEPAAFLALLRFLYS to TSYEIELPDVEPAAFLALLRFLYS, the protein stability index falls from 2.03 to 1.83.

Going from TSLEIELPDVEPAAFLALLRFLYS to TSIEIELPDVEPAAFLALLRFLYS, the protein stability index rises from 1.53 to 2.26.

First: TSVEIELPDVEPAAFLALLRFLYS
Second: TSSEIELPDVEPAAFLALLRFLYS
The protein stability index of the first is higher: 2.27 for the first, 1.67 for the second.

First: TSQEIELPDVEPAAFLALLRFLYS
Second: TSREIELPDVEPAAFLALLRFLYS
The protein stability index of the first is lower: 2.01 for the first, 2.26 for the second.

Compared with TSMEIELPDVEPAAFLALLRFLYS, TSTEIELPDVEPAAFLALLRFLYS is higher in protein stability index: 1.52 for the first, 1.99 for the second.

First: TSWEIELPDVEPAAFLALLRFLYS
Second: TSPEIELPDVEPAAFLALLRFLYS
The protein stability index of the first is lower: 1.41 for the first, 2.12 for the second.

Compared with TSKEIELPDVEPAAFLALLRFLYS, TSNEIELPDVEPAAFLALLRFLYS is lower in protein stability index: 2.17 for the first, 1.96 for the second.
